Assay results as given in publication PMC6613885 (Autophagy, 2019).
Ends that are not written are not given here.

T1: biotin-labeled 16-mer BECN1 S2E LIR peptide (human, also: biotin label, place not given here)
T1 chain: STEEANEFTLIGEASD

T2: biotin-labeled 16-mer PIK3C3 S2E LIR peptide (human, also: biotin label, place not given here)
T2 chain: SEPILTEFELVKVPDP

B1: ATG14 428-445 18-mer array peptide, L438F (peptide)
peptide: ETDLGTDWENFPSPRFCD
notes: ATG14, human, amino acids 428-445; source: synthetic peptide, SPOT synthesis on cellulose membrane
B2: BECN1 89-106 18-mer array peptide, wild type (peptide)
peptide: MSTESANSFTLIGEASDG
notes: BECN1, human, amino acids 89-106; also called BECN1 LIR; source: synthetic peptide, SPOT synthesis on cellulose membrane
B3: ATG14 428-445 18-mer array peptide, E436I (peptide)
peptide: ETDLGTDWINLPSPRFCD
notes: as for B1
B4: BECN1 89-106 18-mer array peptide, T98I (peptide)
peptide: MSTESANSFILIGEASDG
notes: BECN1, human, amino acids 89-106; source: synthetic peptide, SPOT synthesis on cellulose membrane
B5: BECN1 89-106 18-mer array peptide, S96G (peptide)
peptide: MSTESANGFTLIGEASDG
notes: as for B4
B6: BECN1 89-106 18-mer array peptide, S96C (peptide)
peptide: MSTESANCFTLIGEASDG
notes: as for B4
B7: BECN1 89-106 18-mer array peptide, T98E (peptide)
peptide: MSTESANSFELIGEASDG
notes: as for B4
B8: BECN1 89-106 18-mer array peptide, S96D (peptide)
peptide: MSTESANDFTLIGEASDG
notes: as for B4
B9: PIK3C3 242-259 18-mer array peptide, L252V (peptide)
peptide: ESSPILTSFEVVKVPDPQ
notes: PIK3C3, human, amino acids 242-259; source: synthetic peptide, SPOT synthesis on cellulose membrane
B10: ATG14 428-445 18-mer array peptide, W435F (peptide)
peptide: ETDLGTDFENLPSPRFCD
notes: as for B1
B11: BECN1 89-106 18-mer array peptide, L99F (peptide)
peptide: MSTESANSFTFIGEASDG
notes: as for B4
B12: PIK3C3 242-259 18-mer array peptide, E251L (peptide)
peptide: ESSPILTSFLLVKVPDPQ
notes: as for B9
B13: ATG14 428-445 18-mer array peptide, D434E (peptide)
peptide: ETDLGTEWENLPSPRFCD
notes: as for B1
B14: BECN1 89-106 18-mer array peptide, S96T (peptide)
peptide: MSTESANTFTLIGEASDG
notes: as for B4
B15: PIK3C3 242-259 18-mer array peptide, L252I (peptide)
peptide: ESSPILTSFEIVKVPDPQ
notes: as for B9
B16: BECN1 89-106 18-mer array peptide, G101D (peptide)
peptide: MSTESANSFTLIDEASDG
notes: as for B4
B17: ATG14 428-445 18-mer array peptide, E436V (peptide)
peptide: ETDLGTDWVNLPSPRFCD
notes: as for B1
B18: PIK3C3 242-259 18-mer array peptide, E251F (peptide)
peptide: ESSPILTSFFLVKVPDPQ
notes: as for B9
B19: BECN1 89-106 18-mer array peptide, T98C (peptide)
peptide: MSTESANSFCLIGEASDG
notes: as for B4
B20: BECN1 89-106 18-mer array peptide, F97W (peptide)
peptide: MSTESANSWTLIGEASDG
notes: as for B4
B21: PIK3C3 242-259 18-mer array peptide, L252F (peptide)
peptide: ESSPILTSFEFVKVPDPQ
notes: as for B9
B22: ATG14 428-445 18-mer array peptide, wild type (peptide)
peptide: ETDLGTDWENLPSPRFCD
notes: ATG14, human, amino acids 428-445; also called ATG14 LIR; source: synthetic peptide, SPOT synthesis on cellulose membrane
B23: BECN1 89-106 18-mer array peptide, I100L (peptide)
peptide: MSTESANSFTLLGEASDG
notes: as for B4
B24: BECN1 89-106 18-mer array peptide, G101E (peptide)
peptide: MSTESANSFTLIEEASDG
notes: as for B4
B25: BECN1 89-106 18-mer array peptide, L99W (peptide)
peptide: MSTESANSFTWIGEASDG
notes: as for B4
B26: recombinant LC3C (biolayer interferometry) (natural protein, UniProt Q9BXW4 1-126, looked up)
chain: MPPPQKIPSVRPFKQRKSLAIRQEEVAGIRAKFPNKIPVVVERYPRETFLPPLDKTKFLVPQELTMTQFLSIIRSRMVLRATEAFYLLVNNKSLVSMSATMAEIYRDYKDEDGFVYMTYASQETFG
notes: LC3C; construct of the BLI experiment not described; source: recombinant
B27: BECN1 89-106 18-mer array peptide, S96W (peptide)
peptide: MSTESANWFTLIGEASDG
notes: as for B4
B28: PIK3C3 242-259 18-mer array peptide, wild type (peptide)
peptide: ESSPILTSFELVKVPDPQ
notes: PIK3C3, human, amino acids 242-259; also called PIK3C3 LIR; source: synthetic peptide, SPOT synthesis on cellulose membrane
B29: PIK3C3 242-259 18-mer array peptide, F250W (peptide)
peptide: ESSPILTSWELVKVPDPQ
notes: as for B9
B30: BECN1 89-106 18-mer array peptide, S96E (peptide)
peptide: MSTESANEFTLIGEASDG
notes: as for B4
B31: PIK3C3 242-259 18-mer array peptide, L252W (peptide)
peptide: ESSPILTSFEWVKVPDPQ
notes: as for B9
B32: PIK3C3 242-259 18-mer array peptide, V253I (peptide)
peptide: ESSPILTSFELIKVPDPQ
notes: as for B9
B33: BECN1 89-106 18-mer array peptide, L99I (peptide)
peptide: MSTESANSFTIIGEASDG
notes: as for B4
B34: BECN1 89-106 18-mer array peptide, T98V (peptide)
peptide: MSTESANSFVLIGEASDG
notes: as for B4
B35: ATG14 428-445 18-mer array peptide, W435Y (peptide)
peptide: ETDLGTDYENLPSPRFCD
notes: as for B1
B36: PIK3C3 242-259 18-mer array peptide, E251V (peptide)
peptide: ESSPILTSFVLVKVPDPQ
notes: as for B9
B37: PIK3C3 242-259 18-mer array peptide, E251I (peptide)
peptide: ESSPILTSFILVKVPDPQ
notes: as for B9
B38: BECN1 89-106 18-mer array peptide, S96A (peptide)
peptide: MSTESANAFTLIGEASDG
notes: as for B4
B39: PIK3C3 242-259 18-mer array peptide, L252Y (peptide)
peptide: ESSPILTSFEYVKVPDPQ
notes: as for B9
B40: BECN1 89-106 18-mer array peptide, G101P (peptide)
peptide: MSTESANSFTLIPEASDG
notes: as for B4
B41: recombinant GABARAP (biolayer interferometry) (natural protein, UniProt O95166 1-117, looked up)
chain: MKFVYKEEHPFEKRRSEGEKIRKKYPDRVPVIVEKAPKARIGDLDKKKYLVPSDLTVGQFYFLIRKRIHLRAEDALFFFVNNVIPPTSATMGQLYQEHHEEDFFLYIAYSDESVYGL
notes: GABARAP; construct of the BLI experiment not described; source: recombinant

Experiments:
Conditions in all cases: both partners purified
GST-GABARAPL1 = target: T3, GST-GABARAPL1 (UniProt Q9H0R8 1-117); assay: peptide or protein array; two-dimensional scan: 18-mer peptides on cellulose membrane, each position replaced with all 20 amino acids; probed with 1 µg/ml GST-GABARAPL1 for 2 h; anti-GST antibody
T3 construct: GABARAPL1 (GABA type A receptor associated protein like 1); also called pDest15 (GST)-GABARAPL1; source: E. coli SoluBL21, purified on glutathione-Sepharose 4 Fast Flow beads

[1] = target: recombinant GABARAPL1 (biolayer interferometry) (UniProt Q9H0R8 1-117); assay: BLI; biotin-LIR peptides (50 µg/ml) on streptavidin biosensors, Atg8-family protein in solution at different concentrations; Octet Red 96; 25°C; global fit, 1:1 model
[2] = target: B26; assay: as above
[3] = target: B41; assay: as above
[4] = target: T1, biotin-labeled 16-mer BECN1 S2E LIR …; assay: as above
[5] = target: T2, biotin-labeled 16-mer PIK3C3 S2E LIR …; assay: as above

recombinant GABARAPL1 (biolayer interferometry), sequence (Q9H0R8 whole entry, looked up): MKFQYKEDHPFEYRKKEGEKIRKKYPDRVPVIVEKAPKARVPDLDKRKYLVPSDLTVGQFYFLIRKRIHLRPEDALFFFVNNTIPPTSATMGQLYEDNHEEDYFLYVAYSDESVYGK

Binder	binding result (GST-GABARAPL1)	further results
B1	binds	
B2	binds	
B3	binds	
B4	binds	
B5	binds	
B6	binds	
B7	binds	
B8	binds	
B9	binds	
B10	binds	
B11	binds	
B12	binds	
B13	binds	
ETDLGTDWENLPSPRF (also: biotin label, place not given here) [biotin-labeled 16-mer ATG14 LIR peptide]		Kd [1]: 1.9 µM; Kd [2]: 5.85 µM; Kd [3]: 2.85 µM
B14	binds	
B15	binds	
B16	binds	
B17	binds	
SSPILTSFELVKVPDP (also: biotin label, place not given here) [biotin-labeled 16-mer PIK3C3 LIR peptide]		Kd [1]: 65 µM; Kd [3]: 49.5 µM
B18	binds	
B19	binds	
B20	binds	

Binder	binding result (GST-GABARAPL1)	further results
B21	binds	
B22	binds	
B23	binds	
B24	binds	
B25	binds	
B26		fold increase in binding affinity over the wild-type LIR peptide [4]: 8 fold; fold increase in binding over the wild-type LIR peptide [5]: 15 fold
B27	binds	
STESANSFTLIGEASD (also: biotin label, place not given here) [biotin-labeled 16-mer BECN1 LIR peptide]		Kd [1]: 7.95 µM; Kd [3]: 10.5 µM
B28	binds	
B29	binds	
B30	binds	
B31	binds	
B32	binds	
B33	binds	
B34	binds	
B35	binds	
B36	binds	
B37	binds	
B38	binds	
B39	binds	
B40	binds	
B41		fold increase in binding affinity over the wild-type LIR peptide [4]: 3 fold; fold increase in binding over the wild-type LIR peptide [5]: 17 fold
